Test results as given in the supplement of paper PMC9112550, “Optimization of the antimicrobial peptide Bac7 by deep mutational scanning” (BMC Biology, 2022).

Each sequence was assayed on Escherichia coli TOP10 (assay: shrunken log2 fold change of peptide-encoding DNA abundance (4.5 h post-induction vs induction); higher = less antimicrobial activity (less host growth inhibition)). Conditions: time post-induction: 4.5 h; library: site-saturation at positions 5, 18, 19, 20.
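Further: peptides expressed intracellularly from a pBAD plasmid library in pooled LB shake-flask culture, induced with 0.3% L-arabinose, DNA abundance read by NGS, three biological replicates, DESeq2 with apeglm shrinkage.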

RRIRARPPRLPRPRPRPRLTPRP was tested. Which “shrunken log2 fold change” value did it give?
Its value is 1.58.

With RRIRARPPRLPRPRPRPRLWPRP as the sequence, how does the “shrunken log2 fold change” value read?
The value was 0.724.

Which “shrunken log2 fold change” value does the source give for RRIRARPPRLPRPRPRPRMMPRP here?
The value was 0.229.

Which “shrunken log2 fold change” value does the source give for RRIRARPPRLPRPRPRPRMWPRP here?
The value was 0.164.

How did the “shrunken log2 fold change” value turn out when RRIRARPPRLPRPRPRPRNDPRP was run?
The value was 0.0481.

How did the “shrunken log2 fold change” value turn out when RRIRARPPRLPRPRPRPRPAPRP was run?
Its value is 0.76.

For RRIRARPPRLPRPRPRPRPGPRP, which “shrunken log2 fold change” value is on record?
Its value is 0.814.

With RRIRARPPRLPRPRPRPRQEPRP as the sequence, how does the “shrunken log2 fold change” value read?
The value was 0.503.

RRIRARPPRLPRPRPRPRRIPRP was tested. Which “shrunken log2 fold change” value did it give?
Its value is -0.0273.

For RRIRARPPRLPRPRPRPRRPPRP, which “shrunken log2 fold change” value is on record?
Its value is 0.494.

RRIRARPPRLPRPRPRPRSWPRP was tested. Which “shrunken log2 fold change” value did it give?
Its value is 0.533.

With RRIRARPPRLPRPRPRPRWAPRP as the sequence, how does the “shrunken log2 fold change” value read?
The value was 1.05.

With RRIRARPPRLPRPRPRPRYIPRP as the sequence, how does the “shrunken log2 fold change” value read?
Its value is -0.0261.

How did the “shrunken log2 fold change” value turn out when RRIRARPPRLPRPRPRPSAVPRP was run?
The value was 0.282.

RRIRARPPRLPRPRPRPSCAPRP was tested. Which “shrunken log2 fold change” value did it give?
Its value is 0.689.

With RRIRARPPRLPRPRPRPSDSPRP as the sequence, how does the “shrunken log2 fold change” value read?
The value was -0.197.

How did the “shrunken log2 fold change” value turn out when RRIRARPPRLPRPRPRPSFIPRP was run?
The value was -0.177.

With RRIRARPPRLPRPRPRPSFMPRP as the sequence, how does the “shrunken log2 fold change” value read?
Its value is 0.0496.

For RRIRARPPRLPRPRPRPSFNPRP, which “shrunken log2 fold change” value is on record?
Its value is -0.268.

Which “shrunken log2 fold change” value does the source give for RRIRARPPRLPRPRPRPSFQPRP here?
The value was -0.0185.

For RRIRARPPRLPRPRPRPSGAPRP, which “shrunken log2 fold change” value is on record?
The value was 0.38.

For RRIRARPPRLPRPRPRPSGDPRP, which “shrunken log2 fold change” value is on record?
Its value is 0.15.

Which “shrunken log2 fold change” value does the source give for RRIRARPPRLPRPRPRPSIQPRP here?
Its value is -0.119.

For RRIRARPPRLPRPRPRPSKGPRP, which “shrunken log2 fold change” value is on record?
The value was -0.133.

With RRIRARPPRLPRPRPRPSMEPRP as the sequence, how does the “shrunken log2 fold change” value read?
Its value is 0.146.

How did the “shrunken log2 fold change” value turn out when RRIRARPPRLPRPRPRPSNQPRP was run?
Its value is -0.0197.

Which “shrunken log2 fold change” value does the source give for RRIRARPPRLPRPRPRPSPNPRP here?
The value was 0.0681.

RRIRARPPRLPRPRPRPSQCPRP was tested. Which “shrunken log2 fold change” value did it give?
The value was -0.121.

Which “shrunken log2 fold change” value does the source give for RRIRARPPRLPRPRPRPSQEPRP here?
The value was 0.0769.

Which “shrunken log2 fold change” value does the source give for RRIRARPPRLPRPRPRPSQPPRP here?
The value was -0.0248.

Which “shrunken log2 fold change” value does the source give for RRIRARPPRLPRPRPRPSQQPRP here?
Its value is -0.0191.

How did the “shrunken log2 fold change” value turn out when RRIRARPPRLPRPRPRPSRQPRP was run?
The value was 0.373.

Which “shrunken log2 fold change” value does the source give for RRIRARPPRLPRPRPRPSRSPRP here?
Its value is 0.349.

Which “shrunken log2 fold change” value does the source give for RRIRARPPRLPRPRPRPSSRPRP here?
The value was -0.167.

With RRIRARPPRLPRPRPRPSTGPRP as the sequence, how does the “shrunken log2 fold change” value read?
Its value is -0.131.

Which “shrunken log2 fold change” value does the source give for RRIRARPPRLPRPRPRPSVLPRP here?
Its value is -0.167.

For RRIRARPPRLPRPRPRPSVVPRP, which “shrunken log2 fold change” value is on record?
Its value is -0.0244.

With RRIRARPPRLPRPRPRPSWGPRP as the sequence, how does the “shrunken log2 fold change” value read?
The value was 0.0646.

Which “shrunken log2 fold change” value does the source give for RRIRARPPRLPRPRPRPSYVPRP here?
The value was -0.232.

Which “shrunken log2 fold change” value does the source give for RRIRARPPRLPRPRPRPTAEPRP here?
Its value is 1.3.

How did the “shrunken log2 fold change” value turn out when RRIRARPPRLPRPRPRPTEFPRP was run?
Its value is 0.368.

For RRIRARPPRLPRPRPRPTGKPRP, which “shrunken log2 fold change” value is on record?
The value was 0.215.

For RRIRARPPRLPRPRPRPTGLPRP, which “shrunken log2 fold change” value is on record?
The value was 0.298.

RRIRARPPRLPRPRPRPTHEPRP was tested. Which “shrunken log2 fold change” value did it give?
The value was 0.622.

With RRIRARPPRLPRPRPRPTHTPRP as the sequence, how does the “shrunken log2 fold change” value read?
The value was 0.664.

Which “shrunken log2 fold change” value does the source give for RRIRARPPRLPRPRPRPTHYPRP here?
Its value is 0.702.

How did the “shrunken log2 fold change” value turn out when RRIRARPPRLPRPRPRPTIYPRP was run?
The value was 0.0113.

Which “shrunken log2 fold change” value does the source give for RRIRARPPRLPRPRPRPTKPPRP here?
The value was 0.24.

With RRIRARPPRLPRPRPRPTMAPRP as the sequence, how does the “shrunken log2 fold change” value read?
Its value is 0.6.

RRIRARPPRLPRPRPRPTMFPRP was tested. Which “shrunken log2 fold change” value did it give?
The value was 0.121.

Which “shrunken log2 fold change” value does the source give for RRIRARPPRLPRPRPRPTMSPRP here?
Its value is 0.159.

For RRIRARPPRLPRPRPRPTNKPRP, which “shrunken log2 fold change” value is on record?
The value was -0.0139.

For RRIRARPPRLPRPRPRPTNTPRP, which “shrunken log2 fold change” value is on record?
Its value is 0.0887.

How did the “shrunken log2 fold change” value turn out when RRIRARPPRLPRPRPRPTPKPRP was run?
Its value is 0.956.

RRIRARPPRLPRPRPRPTPLPRP was tested. Which “shrunken log2 fold change” value did it give?
Its value is 0.601.

For RRIRARPPRLPRPRPRPTPPPRP, which “shrunken log2 fold change” value is on record?
The value was 0.811.

For RRIRARPPRLPRPRPRPTQGPRP, which “shrunken log2 fold change” value is on record?
Its value is 0.905.

With RRIRARPPRLPRPRPRPTRNPRP as the sequence, how does the “shrunken log2 fold change” value read?
Its value is 0.657.

Which “shrunken log2 fold change” value does the source give for RRIRARPPRLPRPRPRPTWGPRP here?
Its value is 0.625.

How did the “shrunken log2 fold change” value turn out when RRIRARPPRLPRPRPRPTYSPRP was run?
Its value is -0.204.

Which “shrunken log2 fold change” value does the source give for RRIRARPPRLPRPRPRPVCLPRP here?
The value was 0.138.

With RRIRARPPRLPRPRPRPVCPPRP as the sequence, how does the “shrunken log2 fold change” value read?
The value was 0.139.

Which “shrunken log2 fold change” value does the source give for RRIRARPPRLPRPRPRPVENPRP here?
Its value is 0.25.

How did the “shrunken log2 fold change” value turn out when RRIRARPPRLPRPRPRPVEPPRP was run?
Its value is 0.297.

How did the “shrunken log2 fold change” value turn out when RRIRARPPRLPRPRPRPVERPRP was run?
The value was 0.732.

RRIRARPPRLPRPRPRPVETPRP was tested. Which “shrunken log2 fold change” value did it give?
The value was 0.759.

How did the “shrunken log2 fold change” value turn out when RRIRARPPRLPRPRPRPVFKPRP was run?
Its value is 0.115.

With RRIRARPPRLPRPRPRPVFLPRP as the sequence, how does the “shrunken log2 fold change” value read?
Its value is 1.14.

Which “shrunken log2 fold change” value does the source give for RRIRARPPRLPRPRPRPVFRPRP here?
Its value is 0.143.

With RRIRARPPRLPRPRPRPVHPPRP as the sequence, how does the “shrunken log2 fold change” value read?
The value was 0.217.

With RRIRARPPRLPRPRPRPVITPRP as the sequence, how does the “shrunken log2 fold change” value read?
The value was -0.021.

With RRIRARPPRLPRPRPRPVKGPRP as the sequence, how does the “shrunken log2 fold change” value read?
The value was -0.00146.

RRIRARPPRLPRPRPRPVKPPRP was tested. Which “shrunken log2 fold change” value did it give?
Its value is 0.236.

RRIRARPPRLPRPRPRPVKSPRP was tested. Which “shrunken log2 fold change” value did it give?
Its value is 0.19.

With RRIRARPPRLPRPRPRPVLDPRP as the sequence, how does the “shrunken log2 fold change” value read?
The value was 0.185.
